Assay results from US10894986B2, “Compositions and methods for treating or preventing prostate cancer and for detecting androgen receptor variants” (The Johns Hopkins University, priority 2008, dated 2021).

Key:
LNCaP cells = experiment: MTS cell growth assay of transfected LNCaP cells; assay type: cell-based, human; conditions: charcoal stripped serum, absence or presence of 0.5 nM R1881
Protocol: LNCaP cells were transfected by AR-V7 and the control vector. A. Cell growth in medium supplemented with charcoal stripped serum (CSS) in absence or presence of 0.5 nM R1881 were monitored by MTS assay. Ectopic expression of AR-V7 in LNCaP cells was confirmed by western blot analysis (B). As shown the growth rates of AR-V7 expressing cells surpassed those of parental cells cultured in the presence of synthetic androgen R1881.

PSA reporter gene = conditions: exogenously transfected, AR-negative PC-3 cells, presence or absence of R1881
Excerpt: PC-3 cells were transfected with pEGFP-AR and pEGFP-AR-V7 to express the prototype AR or AR-V7 and examined for the localization of GFP-tagged AR proteins in the presence or absence of 5 nmol/L R1 881. […] PC-3 cells were transfected with vector control (EGFP), a LBD-truncated AR mutant (EGFP-Q640X), AR-V7 (EGFP-AR-V7), and prototype AR (EGFP-AR) and subjected to luciferase assays and Western blot analysis following culturing in the presence or absence of R1 881. […] LNCaP cells were transfected with pcDNA-AR-V7 to express the untagged AR-V7 protein or the control pcDNA vector and cultured with or without 10 nmol/L R1 881 before being harvested for Western blot analysis or RNA extraction for expression microarray analysis. The genes shown were the top 20 ranked genes by fold induction following R1 881 treatment in pcDNA empty vector-transfected LNCaP cells. Expression ratios of the test sample versus the common reference (pcDNA empty vector-transfected LNCaP without R1 881) were represented by red (>1) and green colors (<1).
pEGFP-AR and pEGFP-Q640X, which contain the full-length prototype AR and AR Q640X LBD-truncated mutant cDNA, were kind gifts of Dr. Jocelyn Céraline (Université Strasbourg, Strasbourg, France). The cDNA encoding the full-length AR-V7 was inserted into the pEGFP-C3 vector to express the GFP-AR-V7 fusion protein. […]

[1] = system: androgen-responsive genes (KLK3, KLK2, NKX3-1, FKBP5, TMPRSS2); conditions: LNCaP cells, absence of androgens
Excerpt: LNCaP cells were transfected with pcDNA-AR-V7 to express the untagged AR-V7 protein or the control pcDNA vector and cultured with or without 10 nmol/L R1 881 before being harvested for Western blot analysis or RNA extraction for expression microarray analysis. The genes shown were the top 20 ranked genes by fold induction following R1 881 treatment in pcDNA empty vector-transfected LNCaP cells. Expression ratios of the test sample versus the common reference (pcDNA empty vector-transfected LNCaP without R1 881) were represented by red (>1) and green colors (<1).

B1: AR-V7: androgen receptor variant lacking the ligand binding domain, SEQ ID NO: 8, expressed from transfected cDNA (protein)
chain: MEVQLGLGRVYPRPPSKTYRGAFQNLFQSVREVIQNPGPRHPEAASAAPPGASLLLLQQQQQQQQQQQQQQQQQQQQQQQETSPRQQQQQQGEDGSPQAHRRGPTGYLVLDEEQQPSQPQSALECHPERGCVPEPGAAVAASKGLPQQLPAPPDEDDSAAPSTLSLLGPTFPGLSSCSADLKDILSEASTMQLLQQQQQEAVSEGSSSGRAREASGAPTSSKDNYLGGTSTISDNAKELCKAVSVSMGLGVEALEHLSPGEQLRGDCMYAPLLGVPPAVRPTPCAPLAECKGSLLDDSAGKSTEDTAEYSPFKGGYTKGLEGESLGCSGSAAAGSSGTLELPSTLSLYKSGALDEAAAYQSRDYYNFPLALAGPPPPPPPPHPHARIKLENPLDYGSAWAAAAAQCRYGDLASLHGAGAAGPGSGSPSAAASSSWHTLFTAEEGQLYGPCGGGGGGGGGGGGGGGGGGGGGGGEAGAVAPYGYTRPPQGLAGQESDFTAPDVWYPGGMVSRVPYPSPTCVKSEMGPWMDSYSGPYGDMRLETARDHVLPIDYYFPPQKTCLICGDEASGCHYGALTCGSCKVFFKRAAEGKQKYLCASRNDCTIDKFRRKNCPSCRLRKCYEAGMTLGEKFRVGNCKHLKMTRP
cell growth (LNCaP cells): promotes androgen independent growth
PSA reporter gene expression (PSA reporter gene): induced PSA reporter gene expression in an androgen-independent manner
induction of androgen-responsive genes [1]: induced canonical androgen-responsive genes
